Measurements taken from the DeepSol protein solubility set.

Test: soluble on expression in E. coli; label from the status in PepcDB or PDB records

| Sequence | soluble on expression in E. coli |
| --- | --- |
| MGSDKIHHHHHHMLFCSMNAVRNWYILPVFFITSFISKGQNGALIPDTYDQFFQNYYLINPANTDTAGVILHMGHKSQLGVFRGVRQTYFDANFRIQSNRFNRAHSVGIQLFNNSEGDFFSKNRIYGRYAFDIHLSETYFLSAGIAVGAVSYAFKATQSSAGGSDLAYDGSTGLWVVGRKLKAGISIQQISQGKLSPLGQIFELRRQYNANVSYLFFINPDIQLTTHVWYKYQQHNMHDVQVAAIITLQNLVEFGGNYKYQKGVVLIGGLKDIHIGTSSLSLAMSYSTGILNYLAKGDNAVEVFLTYSR | not soluble |
| MGSDKIHHHHHHMVNKNLYTLLVCLLLAGCDLIDYHPYDVRISGETDVNAHNIEQIEAKCKGKTTIRFITMGDSQRWYDETEDFVKEVNKRDDIDFVIHGGDMSDFGLTKEFLWQRDIMNGLKVPYVVLIGNHDCLGTGAETYQAVFGPTNFSFIAGNVKFVCLNTNALEYDYSEPIPNFGFMEQELTDRADEFEKTVVSMHAHPFADVFNDNVAKPFQYYITQYPGLQFCTAAHNHGFDDRILFDDDVHYIVSDCMKSRSYLVFTITPEKYEYELVEY | not soluble |
| MNKFKLGSDFDHLVNSLSDVELLNLFIQSCSQTTINGVPVPRFPPEEIQKQFVGASYEHALYEAYLFYRHIKEYAQNLGVPLNKESKVLDFGCGWGRIIRFLFKDASDQNLLGIDVDPAMITLCNETLGRGIYKTASPHPPVEFISDNSLDIIFAYSVFSHLSEATAENWVKEFSRVLRPGGIFIATTQARYFLDFCQQFQEHPELIQTGWHKTLSQAFPDIHRAISDYENGKFVHSPTGAGDVRNSSFYGETVIPRTYIENHYEKYLKLQDFFDDVNRLPQALFVLQKILEHHHHHH | not soluble |
| MIDWPLAELLPHAGDMILIDQVLAFDEEQIRTRLEVRPGGLFNRPDGSLPAWVGVELMAQSVAAYAGCRARQQGLPVELGFLLGTRKFECNVEHFPLGSTLEIHALRSLEDDNGMGVFECHLSGPGITASARLNVFRPPQAADYLHETPLEHHHHHH | not soluble |
| MARKLFTPITIKDMTLKNRIVMSPMCMYSSHEKDGKLTPFHMAHYISRAIGQVGLIIVEASAVNPQGRITDQDLGIWSDEHIEGFAKLTEQVKEQGSKIGIQLAHAGRKAELEGDIFAPSAIAFDEQSATPVEMSAEKVKETVQEFKQAAARAKEAGFDVIEIHAAHGYLIHEFLSPLSNHRTDEYGGSPENRYRFLREIIDEVKQVWDGPLFVRVSASDYTDKGLDIADHIGFAKWMKEQGVDLIDCSSGALVHADINVFPGYQVSFAEKIREQADMATGAVGMITDGSMAEEILQNGRADLIFIGRELLRDPFFARTAAKQLNTEIPAPVQYERGW | soluble |
| GPQMLSANERLKNNFNILYNQIRQYPAYYFKVASNVPTYSDICQSFSVMYQGFQIVNHSGDVFIHACRENPQSKGDFVGDKFHISIAREQVPLAFQILSGLLFSEDSPIDKWKITDMNRVSQQSRVGIGAQFTLYVKSDQECSQYSALLLHKIRQFIMCLESNLLRSKIAPGEYPASDVRPEDWKYVSYRNELRSDRDGSERQEQMLREEPFYRLMIE | soluble |
| MASTIYTCKECGSDLNLNPNDLFPPDFYFEAGNKGTLSFAAVDAEKFRFEKEDKIMPFFETLNYWGIQRKRTKIKCTSCNHLIGYIYDDGPPLTGGIGQYGFGPSQVIPRAPRYRFKTKARQDGWQYGGLTAFWN | not soluble |
| MSLEVNVEGKLEAMQAVVGAKAVPFAGTQAEPIQIAMIYPSADTSDFWARNYIAMTKRLEELGIQFETTEFASRQIEHSLQSTYANQVVQDADLYDFVIFGPSELAIQADNIDKMAASEGFSTFVWAFHTPLKDLKNQPDGWFDFSSAAGALTMCDYMLGRLGNDVTMAMNRGIPGITDDQRSGDFKACVEEKGNWTTIYEHYGEYQREGGFEGTSLILQAYPEATVIHNANTAMAMGSVEAQISVGKEKEVFSTGWGGTGLELDAIRRGELDATPMRMGDDVGAATAEAIKAHLEGRSDELPFVFLGRITVAHDQMSAEEIDALEAEAFRFSGVGALEREGHHHHHH | not soluble |
| MTQLRHFSHGASVFDIDSVEDFTEKVIQSSVPVIVDFHAEWCGPCQALGPRLEEKVNGRQGSVLLAKINVDHAGELAMDYGISAVPTVFAFKNGEKISGFSGVLDDEQLDDFIEDVLAA | not soluble |
| MCGRFVLFTTDESLLGHPALRIFHSIHAPKGMPPARYNIAPTTIIPILRVGTTPTEAVIEPARWGLIPAWKREVTLPPLFNARAETVTTKPSFRQAFSTQRCAIPMDGYYEWHNKKPYWITTGAPTWVAGLWDSGAGMLSATMITTDSVAPLDWLHHRMPRFLNNDELAVWLRGSADEASGLLTPGDASAFHTSLADPSVGNIRNDYPELIDAPTDLFSLLEHHHHHH | soluble |
| MAEHPIQGLMETAMESIKEMVDVNTIVGDAVQAPDGTVIIPISKVTFGFAAGGGEFASCCSVDEKGEDSSDDSSKPEIKFPFAGGSGAGVSINPVAFMVVGQGQIKLLPVNINSSLEKILDLIPEIIEKTKDSVKKNLKVKKEIKPGNGESCAKSSKEDENE | not soluble |
| MNKQRLITELQSKGLRLVDPNAKDLGRKGGAGPSDHRAVTVDGTTVMVPIYTSTAAASPYSINLASMPPKTVLSKGDEEIAAIALPRQPKFYDLKTADGIPYSHIALLHSNNVLATTVQQTCIRYRDESTVCQFCAIEKSLDAGRTITRKLPEQLAEVTEAAVRLDGIEQVIMTTGTPNSGDRGAAYLTKCAAAIKARVNIPIQAQCEPPDDFIWFERMKAAGVDSLGMHLEAVDPDVRAKIMPGKAEVPVSYYYEAYEAAVKVFGWGQVSTYLLAGLGDSFETLVEASEKLVNMGVYPFVVPFVPISETPLANHPAPDSDFMFALYQRVGTIIKQSQISSVDMKAGCAKCGACSALSTFAKLEHHHHHH | not soluble |
| MGSDKIHHHHHHMTSDVLVIAPFRRPTFRTAISHLYPVTEPWDSPPLITCGAIQEAGLEVDYVALQNIFNGYDPERDGRDLNEILGVLHPKVVIFSSDHFIPSRSTASIYGISLVSKIFKSRERPPLIGVCGRLATVAAQRLFAEVPEVDFAVIGESDGVIGEVVADLLAADMEETSRRHGYVHTRTAPARDIAYMGDVNDVALPAFALALPSIAQYRSRFGLEENPLPFSLRTSFGCKFKCRFCAGVPHWLDYRKKSPDRVQAELDAFLNQLGDQARISFLEDEIFTRDPEHVAAITALLKERNIYLDGLYTHSTLLTPEIAADLCTVADRVFTGLDNADDQILRKMGKGQLLDTVLDAVEKAQAASLKVHLEWIIGTPEETLDTLVTSLSTIFNLLSTHAVESINTYVYCPHPGTDYTVNAKKYRMRVLDTFDGIQESGGYPAFDTANLTRNQIYTAYLMSQLVIAEVTAARQHSSIPRAVVPASRSELLRLFGMIGEGQVAFDFDEAPVGRVSYPEGTSRA | not soluble |
| MGHHHHHHSHMASRVRVTILFATETGKSEALAWDLGALFSCAFNPKVVCMDKYRLSCLEEERLLLVVTSTFGNGDCPGNGEKLKKSLFMLKELNNKFRYAVFGLGSSMYPRFCAFAHDIDQKLSHLGASQLTPMGEGDELSGQEDAFRSWAVQTFKAACETF | not soluble |
| SHMAGLEVLFASAAPAITCRQDALVCFLHWEVVTHGYCGLGVGDQPGPNDKKSELLPAGWNNNKDLYVLRYEYKDGSRKLLVKAITVESSMILNVLEYGSQQVADLTLNLDDYIDAEHLGDFHRTYKNSEELRSRIVSGIITPIHEQWEKANV | soluble |
| MGKYTEQAKLAAVKEYCAGKAGLRDVAHRHDVDFSCLRQWVAAYQIHGPAALKEKRRQRYSDEFKLAVLKRMHDERLSLRQTAALFDIRQFGIINLWQRLFDEGALNASSKPPKKAGRPRKMTTPLPPVNSSPINDESRSRDELLAEVKQLRMEVDYLKKLDALVQKKQRIAQQKKRKSLEHHHHHH | not soluble |
| MFAVRTKFVTKTEVVLRTVYTALEKGLAVIGPTQVAEELGVSKSTAQKMLNELSKAGYGVYVPKKGLVLNERGKMEARAAVRMHRLIECLLADLGVEDFCKEAEKIGMVAGSSLVDALEARYGDREFCPCGKRIPEVKK | not soluble |
